Two proteins from publication PMC12784347, “Structural insights into substrate binding, residue contributions, and catalytic mechanism of phosphopantetheine adenylyltransferase from Helicobacter pylori” (Bioscience Reports, 2025) can be followed below.

Series [1] deals with the molecule itself. Kind of series: crystal structure; apo HpPPAT; hanging-drop vapor diffusion, 293K, protein 15 mg/ml in 20 mM Tris-HCl pH 7.9, 100 mM NaCl; reservoir 2.5 M NaCl, 0.1 M sodium acetate pH 4.5, 0.2 M Li2SO4; space group H3, two copies in the asymmetric unit; 1.98 Å.
Series [2] deals with the molecule itself. Put plainly: crystal structure; HpPPAT:ATP; reservoir 17% PEG1000, 0.1 M citrate phosphate pH 4.2, 1.5 mM ATP, 0.2 M Li2SO4; space group P1, 12 copies in the asymmetric unit; 2.12 Å.
Series [3] deals with the molecule itself. Put plainly: crystal structure; HpPPAT P8A:dPCoA; reservoir 18% PEG550 MME, 0.2 M KF pH 7.4; space group P2(1)2(1)2, hexamer; 2.00 Å.

Broadly, the stoichiometry N is a count of units in the complex or per binding partner.

B1: Helicobacter pylori phosphopantetheine adenylyltransferase, wild type (enzyme)
chain: MQKIGIYPGTFDPVTNGHIDIIHRSSELFEKLIVAVAHSSAKNPMFSLDERLKMIQLATKSFKNVECVAFEGLLANLAKEYHCKVLVRGLRVVSDFEYELQMGYANKSLNHELETLYFMPTLQNAFISSSIVRSIIAHKGDASHLVPKEIYPLISKA
notes: Phosphopantetheine adenylyltransferase (PPAT; EC 2.7.3.3) of Helicobacter pylori; each monomer in the crystal structures comprises 157 residues; also called HpPPAT; WT HpPPAT
Take B1: the “stoichiometry N” value in series [1] was found to be 2; in series [2], 12.

B2: Helicobacter pylori phosphopantetheine adenylyltransferase P8A mutant (enzyme)
chain: MQKIGIYAGTFDPVTNGHIDIIHRSSELFEKLIVAVAHSSAKNPMFSLDERLKMIQLATKSFKNVECVAFEGLLANLAKEYHCKVLVRGLRVVSDFEYELQMGYANKSLNHELETLYFMPTLQNAFISSSIVRSIIAHKGDASHLVPKEIYPLISKA
notes: Phosphopantetheine adenylyltransferase (PPAT; EC 2.7.3.3) of Helicobacter pylori with Pro8 replaced by alanine; also called HpPPAT P8A; HpPPAT mutant P8A
As for B2, the “stoichiometry N” value in series [3] is 6.
